Where two headings read alike, the source gives them in different places.
What was measured:
S. aureus = assay: pp296 dose fractionation study, neutropenic murine thigh infection model; assay type: in vivo
Description: Each of the pp296 TDDs was fractionated into three regimens, i.e., one-third of the entire dose was administered via IV three times (q8h); one-half of the entire does was administered via IV two times (q12h), or the entire dose was administered via IV once daily over a 24-hour period, for a total of three groups per each TDD.
Untreated control mice (n=3/group) were sacrificed just prior to antibiotic administration, as well as 24 hours later. Animals sacrificed prior to antibiotic administration served as 0-hour control animals, representing initial bacterial burden. The 24-hour control animals received sterile normal saline in the same volume and schedule as the most frequent active drug regimen. […] After the 24-hour treatment period, all animals were euthanized and thighs were cultured quantitatively as described above. The change in bacterial density was calculated for each of the dosing regimen. Comparisons were made between the different regimens of the same total daily dose on bacterial burdens at 24 hours using one-way Analysis of Variance (ANOVA) test followed by Tukey's test where the P value was 0.05.

S. aureus isolates = assay: MIC determination (broth microdilution) against 8 S. aureus isolates; assay type: cell-based; design: MIC pp296 (AST media): unit not given beside the values; conditions: for MIC pp296 (mouse serum): 100% ICR mouse serum; for MIC pp296 (human serum): 100% human serum; for MIC pp296 (AST media): caMHB-HSD
Description: Suitable methods for assessing the activity of a modified lysin polypeptide as disclosed herein are well known in the art and described in the examples. […] For example, MIC values for a modified lysin polypeptide may be determined against e.g., laboratory Staphylococcus aureus strains, in e.g., Mueller-Hinton broth or Mueller-Hinton broth supplemented with serum, such as horse serum.
The pp296 MICs were determined based on (1) cation-adjusted Mueller-Hinton Broth with 25% horse serum and 0.5 mM DTT (caMHB-HSD); (2) human serum (100% serum); and (3) ICR mice (100% serum). Vancomycin and daptomycin MICs of the isolate strains were determined in accordance with the broth microdilution method as outlined by CLSI. Results of the MIC determination are shown below in Table 2. The bacterial isolates were frozen at −80° C. in skim milk.

[1] = system: 5 MSSA and 5 MRSA isolates; conditions: cited from earlier work

B1: pp296: modified PlySs2 lysin, SEQ ID NO: 6: L92W, V104S, V128T, Y137S, Y164K, N184D, S198Q (protein)
chain: MTTVNEALNNVRAQVGSGVSVGNGECYALASWYERMISPDATVGLGAGVGWVSGAIGDTISAKNIGSSYNWQANGWTVSTSGPFKAGQIVTWGATPGNPYGHVSIVEAVDGDRLTILEQNYGGKRYPTRNYYSAASSRQQVVHYITPPGTVAQSAPNLAGSRSKRETGTMTVTVDALNVRRAPDTSGEIVAVYKRGEQFDYDTAIIDVNGYAWVSYIGGSGKRNYVATGATKDGKRFGNAWGTFK
- efficacy of dose-fractionation (q12h v. q8h) compared with q24h (S. aureus; pp296 5 or 50 mg/kg/day IV with vancomycin or daptomycin): does not appear to provide enhanced efficacy
- driver of efficacy (PK/PD index) (S. aureus; pp296 with vancomycin or daptomycin): AUC related
- MIC pp296 (mouse serum) (S. aureus isolates; ATCC 29213 MSSA): 256
- MIC pp296 (mouse serum) (S. aureus isolates; CAIRD426 MRSA): 32
- MIC pp296 (mouse serum) (S. aureus isolates; HPV107 MRSA): 128
- MIC pp296 (mouse serum) (S. aureus isolates; JMI227 MRSA): 64
- MIC pp296 (mouse serum) (S. aureus isolates; JMI4789 MRSA): 256
- MIC pp296 (mouse serum) (S. aureus isolates; NRS100 (COL) MRSA): 32
- MIC pp296 (mouse serum) (S. aureus isolates; NRS123 (MW2) MRSA): 256
- MIC pp296 (mouse serum) (S. aureus isolates; NRS271 MRSA/LRSA): 64
- MIC pp296 (human serum) (S. aureus isolates; ATCC 29213 MSSA): 1
- MIC pp296 (human serum) (S. aureus isolates; CAIRD426 MRSA): 1
- MIC pp296 (human serum) (S. aureus isolates; HPV107 MRSA): 1
- MIC pp296 (human serum) (S. aureus isolates; JMI227 MRSA): 1
- MIC pp296 (human serum) (S. aureus isolates; JMI4789 MRSA): 1
- MIC pp296 (human serum) (S. aureus isolates; NRS100 (COL) MRSA): 1
- MIC pp296 (human serum) (S. aureus isolates; NRS123 (MW2) MRSA): 1
- MIC pp296 (human serum) (S. aureus isolates; NRS271 MRSA/LRSA): 0.5
- MIC pp296 (AST media) (S. aureus isolates; ATCC 29213 MSSA): 1
- MIC pp296 (AST media) (S. aureus isolates; CAIRD426 MRSA): 1
- MIC pp296 (AST media) (S. aureus isolates; HPV107 MRSA): 1
- MIC pp296 (AST media) (S. aureus isolates; JMI227 MRSA): 0.5
- MIC pp296 (AST media) (S. aureus isolates; JMI4789 MRSA): 1
- MIC pp296 (AST media) (S. aureus isolates; NRS100 (COL) MRSA): 1
- MIC pp296 (AST media) (S. aureus isolates; NRS123 (MW2) MRSA): 1
- MIC pp296 (AST media) (S. aureus isolates; NRS271 MRSA/LRSA): 1
- FIC index ([1]; with daptomycin): ~0.5
- FIC index ([1]; with vancomycin): ~0.5

From US20230277632A1, “MODIFIED PlySs2 LYSINS AND ANTIBIOTIC COMBINATIONS FOR USE AGAINST GRAM-POSITIVE BACTERIA” (ContraFect Corporation, priority 2020, published 2023)
